Test results reported in article PMC6982183.

Biological target: human Hsp60 G190W mutant (human) (UniProt P10809)
Test: SEC; Superdex 200 Increase 10/300 GL, 50 mM Tris-HCl (pH 7.8 at 25 °C), 2 mM DTT, 2 mM EDTA, 0.5 mg sample, 0.75 mL/min; size from calibration with molecular weight standards; before and after agitation

**Q.** Which stoichiometry N does the source give for “human Hsp60 G190W mutant (from UniProt P10809 53-573) (natural protein)” here?
**A.** The stoichiometry N was 14.
